Substrate: Cc1cc2nc3c(=O)[nH]c(=O)nc-3n(C[C@H](O)[C@H](O)[C@H](O)COP(=O)(O)OP(=O)(O)OC[C@H]3O[C@@H](n4cnc5c(N)ncnc54)[C@H](O)[C@@H]3O)c2cc1C
Experiment: purified protein
Assay type: biochemical, Homo sapiens
Settings: co-substrate NADPH 400 µM; enzyme 20 µM

Protein | Km [µM] | kcat [s⁻¹]
human BLVRB (Homo sapiens) (protein, pET21) AVKKIAIFGATGQTGLTTLAQAVQAGYEVTVLVRDSSRLPSEGPRPAHVVVGDVLQAADVDKTVAGQDAVIVLLGTRNDLSPTTVMSEGARNIVAAMKAHGVDKVVACTSAFLLWDPTKVPPRLQAVTDDHIRMHKVLRESGLKYVAVMPPHIGDQPLTGAYTVTLDGRGPSRVISKHDLGHFMLRCLTTDEYDGHSTYPSHQYQ | 242 ± 36 | 0.16 ± 0.03
human BLVRB (Homo sapiens; T164S) (protein, pET21) AVKKIAIFGATGQTGLTTLAQAVQAGYEVTVLVRDSSRLPSEGPRPAHVVVGDVLQAADVDKTVAGQDAVIVLLGTRNDLSPTTVMSEGARNIVAAMKAHGVDKVVACTSAFLLWDPTKVPPRLQAVTDDHIRMHKVLRESGLKYVAVMPPHIGDQPLTGAYSVTLDGRGPSRVISKHDLGHFMLRCLTTDEYDGHSTYPSHQYQ | 171 ± 33 | 0.1 ± 0.03
